The test concerns the target H2A-H2B dimers (yeast) (yeast) (UniProt P04911). As to the kind of experiment: native gel or EMSA. (In general: In EMSA bound probe runs differently from free probe, usually more slowly.)

Consider “Purified Tom1p (Tom1p-Protein A after Protein A removal) (from UniProt Q03280 1-3268) (enzyme)”, for which the Kd was in the range of 160 to 330 nM.

A word on the Kd: it is the free concentration of one partner at which half of the binding sites on the other are occupied at equilibrium, for simple one-to-one binding.
